experiment: soluble on expression in E. coli; label from the status in PepcDB or PDB records

| Sequence | soluble on expression in E. coli |
| --- | --- |
| MGSDKIHHHHHHDYKLVIFASFNGKAYSDNPRYLFEYLRDHEEFASYHFVWAFKVKRSVNRAKVVKFNSFSYYYLLSKAKYWVFNSKMAPYYHKKGEQVYLQTWHGTPLKRLGHDILDNGITYYRSRLSYQQMLRSYDEDSRHWDYLISPNPFSSQAFTSAFNLDRGKLLEVGYPRVDFLVNADSNKCMELKRRYGLPLDKKVVLYAPTWRDDSFGIRGYRFELAVDFYKWKNQLGDDTVILFKPHYLISNVYQIPNDLSNFVYLMAASADINDAYLMSDVLITDYSSVFFDYANLNRPIYFYMYDFEQYEQELRGFYLNVPDELPNDVIRTEKELLRRIKEDIFDYDRLQVFNQVFNSWNDGKVSSKVAKRIFYEN | not soluble |
| MGSDKIHHHHHHEATETQNEKVKVKVETVSVQDVEQLSEFTATVEANIKNNIAPQTPFRIEKIFAEVGDHVKAGQLLAKMDATSLKQAKIQLDNQEIEFKRIDELYKVGGASKSAWDAQKTSLEVARETYKNLVENTQLLSPISGIVTARNYDSGDMYSGGNPIYTVEEIRPVKLMVNVSESLFTKVKKGHEVDIRLDVYGDEVFKGKVNLVYPTIDPATRTFPVEIKIANSDERVRPGMFARVTMSFGHMDHVVAPDRSIVKQSGAGDRYIYVCKDGKVSYQKVKLGRRMGDKYEIISGVEDGDQVVITGQSRLTNGMEVEIENE | not soluble |
| MGSDKIHHHHHHEDSNPNALSPGIFWKSEGDIMKGLTSVYGALQPNASWAIPFERYIVIDGYRSDEITHRDDVTSWMNISSFNVEPTNSVVKTEWTNLYKGINYANQCLTNIPTVPGDSESLNALKKQSIAEARFLRAYFYYRLYVNFGERVPIYKEALAGTDEEFYPPQANPGELVSLIETELKEVQSDLPESYEESEKGRVTRYTAAALLGKFYMFRKELSKAEVEFKKIIDKEGSLFGLMENWADNFDGMHKNNKESLFEIQFTGDRSGGQYEYNLFTVHLGPMAGLDAYEEAYPTDWMCQTLLADKTIDGKSSDRALHTLIFDDPECRPFYYKNGKSFKDYHKEGEIFWHKYVTYTEGMSDYWDYSFFNVSVIRYADVLLLYAECLNDKGETTEAINIINKVRARVNVPALPLTMSKAEVLKHLQDKERPCELALEGSRWYDLVRWGIVEETLKAHNKPFVENYVDTKHQLFPIPHSEFLLNPDWEQNPNYSK | not soluble |
| MGSDKIHHHHHHEKKDKKENDTSAAQATETDCTAAELVTTEPEAEITISEMIDQRIKEEGKIMMYRMHFGPSKTPLEITEDLNVNIISYDGKELIDYGNSSNRRGETRLGDIIHNKVDYSTYDIGAYGGSWKRHRRVSGGDEKYVEEEGYVQREITTDDSGNNTQMETLYLYSKGTLYTREEGSEVWNQTEKNDNLPVVAFGTFERIKLDGKTYMTFCVRDDLNLIKYIIIPDNKFTENKTVVYDTPGTEGTTVNTVDYLKEYQAVPKEELEQMIVFPGSKKAESSQAAD | not soluble |
| MGSDKIHHHHHHELPDNRTELNENNVGKILLSAYPTTAICEMGEMSSDNTDAYPNRFSSFNRLQEDLYKWADSAEQDQDSPHALWESCYMAISACNEVLKVIEDAGNPASLSAEKGEALVCRAYAHFLLANIFCNAYSSQASSDLGIPYMKTIETTVSPDYQRGTLEEVYQNIEKDLLEGLDLVTDIYAVPKYHFTKKAAQAFAARFYLYYVKSDKSNYTKVIDYATKVLGSNPATSVRDWKSLGALDINGSVQPNAYVDATNGANLLLVSAGSYWGYVHAPYGLGERYAHGPKVGNETCNSVGPWGSDYYMGVWSNSSALPTKIVVMKITQYKEVVDAVAGTINGHMINAAFTTDETLLCRAEAYAMKEMYPQAIADLNIWREAYTRSTTPLTTESINDFYGSMEYYTPTESTVKKKLNPDFTITNETQENVIHCILHARRLTTLHEGLRWQDIKRYGITIYRRLMNDNGTITVTDKLEPNDPRRAIQIPSDVISAGLKPNPRTK | not soluble |
| MGSDKIHHHHHHENKLVSGAVGLGFGTGPTFPGADENDSGLFPVVDLKIGQYVVVNQRGLGLEHSRSLGHGELSYGLGVGYDFTSRSVEDDLRLAGLSDVDAGAMATLFLEYQTGPFSYGLEVMRGLNSDGHEGTRAKLSGGYDIQLSERAGLSVSPYLIWADDNWMDSFFSVSNAQSVASGLAAYDANAGMSQAGLNLTASYALREQVIVFASVDYATLLGDAADSSVSFDDNAASLSAGVMFRF | not soluble |
| MGSDKIHHHHHHENLYFQGMKIKVALLDKDKEYLDRLTGVFNTKYADKLEVYSFTDEKNAIESVKEYRIDVLIAEEDFNIDKSEFKRNCGLAYFTGTPGIELIKDEIAICKYQRVDVIFKQILGVYSDMAANVATISGENDKSSVVIFTSPCGGVGTSTVAAACAIAHANMGKKVFYLNIEQCGTTDVFFQAEGNATMSDVIYSLKSRKANLLLKLESCIKQSQEGVSYFSSTKVALDILEISYADIDTLIGNIQGMDNYDEIIVDLPFSLEIEKLKLLSKAWRIIVVNDGSQLSNYKFMRAYESVVLLEQNDDINIIRNMNMIYNKFSNKNSEMLSNISIKTIGGAPRYEHATVRQIIEALTKMEFFEEILQ | soluble |
| MGSDKIHHHHHHEPYSEIIEEDYVPTEADEIALLATTYSQLRFVMDWYGLFDLQEESGDVIVTPTRPNGWDDGGTYKQMHKHTWDNQQGQPQSIWDYCYKGIANANKILKRADEGFFTEESKPKVVAEVKGVRALWYSILCDTHGNIPIQTSFSEEVPVQSTRKQVFDFIINELKEVMPNLPTEVNKSTYGRLTQWGAKCLMARMYLNAGVYTGTPMWNECLEQCNDIINSGLFSLETNYTDIFKTENSGCVETIFAIPYDEVYNEGDNNGPVFGAHMKFLSSNSRKVFNMQTTPWGGSAANPQFINSYDPDDMRLKYTWLQGDQYSPDGVLITTFPNKLPSIYKTDTDDGYRVGKYEIKVGAKSLLSNDFPYFRYTEVLLMKAECLLRLGQNETEAAHIVSQIRERAFRESAHPEKATVDAAWLKGDTHINYGTLDEKGQIDDAGNTEVVELGGLYDEWGWEFAAEARRRTDMIRFGTYQKKSWFNHTPTANDLNGNSILFPIHLDHLNTNPNLQQNPGYAGK | not soluble |
| MGSDKIHHHHHHFDEETAFQSPTLVYVNTVASLYNNMFKIMGNDRHVYDLNTFSSDEAMLPCRIGDWEDGGLWQNIFLHRWGTMNDLTKNSWDFLYEQIGKCNQSVDKLQAFAEEQPDVEYFKVYLEEVRAVRAFFYYELLDLFARVPLVTSSTTPMSEVKQSERSVVFNFVRSELEEALPYLSDNRSNQKGEYYGRITKPVAYMILAKLALNAEVYADDNWTDGNRPAGKNIKFTVDGKEMNAWEATIAYVDKLEALGYKLQGNFSENFAVANETSVENIFTVPMDPVAYPDAKDYNLVRTRHYDHATAYGQSGWNGSCATVKAMNVFKFGTADEDPRCKLTYFTGEVTGPDGKTIYTEWDGQKVPLKYEPNAPKVYMDASDGLLVKTAGARMAKYEFDQNAQDGGNLHGNDCVIFRFADALLMKAEAKIRLGQNGDDEVNQVRNRVGAKPLQNVTLDTLLDERMLELAWEGVRRQDLIRFGKFTEATVDRYVGVKHFASSLDYQEDKTGYTTVFSIYADILSLNPNLTQNPGY | not soluble |
| MGSDKIHHHHHHGCSFLIKEVNVKQENEAGEMVAYIKAGEIATFTFSGEINIDGDASNETFIVGFLAPRSWNVRQNATVTYREDRYETEVDHKMTVIPDTEQPANYKGMSWSAALKKKYGVRGNVLNDMEWIAFKSDNYPSVNGTIHYTVTIKCNSGKSNLKFRPSFFINHSSDGIGGDEAHYSVKDADDCFEVVEGSGTVIDFCSTHYYQIEPLSALQDDYVTFTFQGDINTNELIKAENVYIEATAYTIEGKIYTVNEKSAKTLMKRETKLPRYNVTLWPGGFFNIPDGETISRIEYIFTNEDGTVSISQSDDSRDNEGEEVEEGIKEPFVFEFQCE | not soluble |
| MGSDKIHHHHHHGGFTGAIADFPTAIHRAVKGQMQTTTDYLNGEQTEYDESVFTGEYHYYYEKLSDDDKLIYRQIYAMMQKRMDGISLNTTDTDNVSRIQQFVLLDNPQFFYIEKSQYTVRNSIIFSPVYNMSESDIDNAISTISGYVSACMAGIDEGASDYDKAVHFYEYVIEHAEYEENSPHNQDMYSAVLGRTVCQGYAMMFKYLCDRAGISSLIVTGTTSDANHAWNMVYLDGAWCAVDCTYGDGDYLGKGISYSWFGVPLDVVKLTRTLDNEDMLPQEASVEDDYYYRNGLYFTSYDLKVLQGMTTSSNYITFKFSDRETYDTACHSLFDKGDYKYLIPTARGGTITYMQEPNSLAVFIHIELGS | not soluble |

— the DeepSol protein solubility set
